Test [1] has as its target T1, Human MerTK on hMerTK-expressing cells (human, UniProt Q12866 21-999).
T1 sequence: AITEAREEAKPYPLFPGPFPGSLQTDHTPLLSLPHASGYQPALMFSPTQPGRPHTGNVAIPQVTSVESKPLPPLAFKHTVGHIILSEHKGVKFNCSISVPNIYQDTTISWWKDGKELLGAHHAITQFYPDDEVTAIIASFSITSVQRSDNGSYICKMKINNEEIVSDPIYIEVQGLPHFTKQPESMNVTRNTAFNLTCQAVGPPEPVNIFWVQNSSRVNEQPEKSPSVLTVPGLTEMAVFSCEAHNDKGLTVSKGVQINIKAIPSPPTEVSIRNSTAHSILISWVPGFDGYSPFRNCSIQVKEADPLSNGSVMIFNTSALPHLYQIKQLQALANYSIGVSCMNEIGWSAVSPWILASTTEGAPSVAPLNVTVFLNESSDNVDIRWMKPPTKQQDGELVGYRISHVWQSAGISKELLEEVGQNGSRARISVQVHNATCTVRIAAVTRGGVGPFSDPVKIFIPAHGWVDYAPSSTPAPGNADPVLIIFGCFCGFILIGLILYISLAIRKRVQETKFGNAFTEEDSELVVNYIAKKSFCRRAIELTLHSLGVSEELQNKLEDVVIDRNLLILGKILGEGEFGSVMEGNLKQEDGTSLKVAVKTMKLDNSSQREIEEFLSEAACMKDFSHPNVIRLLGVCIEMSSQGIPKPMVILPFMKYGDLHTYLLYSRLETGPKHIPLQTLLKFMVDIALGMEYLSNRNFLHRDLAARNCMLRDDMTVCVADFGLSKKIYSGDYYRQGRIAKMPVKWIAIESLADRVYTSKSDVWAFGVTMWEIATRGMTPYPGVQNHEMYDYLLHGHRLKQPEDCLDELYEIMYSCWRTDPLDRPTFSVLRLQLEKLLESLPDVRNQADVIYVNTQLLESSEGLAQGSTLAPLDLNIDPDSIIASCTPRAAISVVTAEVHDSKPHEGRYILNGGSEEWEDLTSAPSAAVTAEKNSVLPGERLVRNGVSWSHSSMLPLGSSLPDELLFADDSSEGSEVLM
The test is described as follows: cell-based or functional assay.

The target of test [2] is T2, Mouse MerTK on mMerTK-expressing cells (mouse, UniProt Q60805 19-994).
T2 sequence: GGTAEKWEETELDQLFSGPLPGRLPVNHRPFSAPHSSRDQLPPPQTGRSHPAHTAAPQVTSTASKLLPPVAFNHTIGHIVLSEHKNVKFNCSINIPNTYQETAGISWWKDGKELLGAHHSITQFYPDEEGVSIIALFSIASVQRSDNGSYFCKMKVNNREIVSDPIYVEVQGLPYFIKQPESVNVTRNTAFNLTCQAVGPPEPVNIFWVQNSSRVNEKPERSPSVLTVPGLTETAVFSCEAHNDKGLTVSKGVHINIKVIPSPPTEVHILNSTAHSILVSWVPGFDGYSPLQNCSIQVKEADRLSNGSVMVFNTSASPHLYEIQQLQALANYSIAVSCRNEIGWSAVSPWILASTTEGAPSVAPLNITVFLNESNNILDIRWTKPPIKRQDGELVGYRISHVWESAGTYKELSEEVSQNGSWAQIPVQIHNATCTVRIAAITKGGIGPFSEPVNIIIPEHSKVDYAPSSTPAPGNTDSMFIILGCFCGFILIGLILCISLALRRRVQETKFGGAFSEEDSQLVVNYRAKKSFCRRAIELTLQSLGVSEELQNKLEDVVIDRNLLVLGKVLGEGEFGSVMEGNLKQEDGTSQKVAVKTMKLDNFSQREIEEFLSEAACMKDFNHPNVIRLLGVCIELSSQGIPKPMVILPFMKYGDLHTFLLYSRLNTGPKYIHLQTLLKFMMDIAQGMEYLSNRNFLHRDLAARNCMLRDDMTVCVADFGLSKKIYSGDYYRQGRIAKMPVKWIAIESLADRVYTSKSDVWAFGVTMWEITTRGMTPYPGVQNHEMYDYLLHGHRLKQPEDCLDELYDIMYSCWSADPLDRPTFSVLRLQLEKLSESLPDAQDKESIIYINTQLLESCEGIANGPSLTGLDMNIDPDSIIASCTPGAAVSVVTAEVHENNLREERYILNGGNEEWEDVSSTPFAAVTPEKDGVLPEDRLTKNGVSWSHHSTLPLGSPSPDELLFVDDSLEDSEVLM
As to the kind of experiment: cell-based or functional assay.

Test [3] addresses T3, Recombinant soluble extracellular domain of human MerTK (human, UniProt Q12866 21-505).
T3 construct: SPR analyte; also called hMerTK
T3 sequence: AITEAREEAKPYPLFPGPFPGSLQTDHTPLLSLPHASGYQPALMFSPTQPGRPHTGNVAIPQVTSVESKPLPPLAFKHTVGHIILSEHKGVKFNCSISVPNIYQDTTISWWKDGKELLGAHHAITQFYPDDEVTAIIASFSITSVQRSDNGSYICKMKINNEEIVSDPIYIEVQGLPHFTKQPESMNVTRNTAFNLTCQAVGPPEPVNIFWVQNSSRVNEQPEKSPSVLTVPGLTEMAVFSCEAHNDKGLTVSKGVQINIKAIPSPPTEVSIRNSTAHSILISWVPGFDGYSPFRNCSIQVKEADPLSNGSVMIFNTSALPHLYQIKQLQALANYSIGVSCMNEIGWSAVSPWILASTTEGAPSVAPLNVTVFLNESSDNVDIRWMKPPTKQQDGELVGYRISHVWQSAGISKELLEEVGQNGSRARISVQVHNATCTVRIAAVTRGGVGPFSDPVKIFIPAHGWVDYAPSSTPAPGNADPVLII
The test is described as follows: SPR, soluble MerTK ECD; format for mouse mAbs not detailed. On the technique in general: In SPR one partner is held on a chip, and binding of the other changes the refractive index at the surface.

Test [4] has as its target T4, Recombinant soluble extracellular domain of cynomolgus monkey MerTK (cynomolgus monkey, UniProt Q12866 21-505 (human entry)).
T4 construct: SPR analyte; also called cMerTK; Cynomolgus MerTK
T4 chain: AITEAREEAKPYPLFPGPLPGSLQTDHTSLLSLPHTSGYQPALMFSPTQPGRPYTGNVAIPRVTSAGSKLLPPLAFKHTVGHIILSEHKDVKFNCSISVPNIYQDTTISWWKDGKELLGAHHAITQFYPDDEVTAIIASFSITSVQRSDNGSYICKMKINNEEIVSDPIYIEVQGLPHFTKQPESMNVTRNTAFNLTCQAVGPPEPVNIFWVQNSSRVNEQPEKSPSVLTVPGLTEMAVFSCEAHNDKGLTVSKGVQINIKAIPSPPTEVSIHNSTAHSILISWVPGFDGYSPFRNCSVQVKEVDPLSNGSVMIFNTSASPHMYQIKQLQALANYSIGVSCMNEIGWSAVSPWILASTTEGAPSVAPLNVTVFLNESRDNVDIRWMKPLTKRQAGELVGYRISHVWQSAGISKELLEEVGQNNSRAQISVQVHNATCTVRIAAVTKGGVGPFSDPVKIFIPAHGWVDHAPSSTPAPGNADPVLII
Described as above.

Test [5] deals with T5, Recombinant soluble extracellular domain of mouse MerTK (mouse, UniProt Q60805 19-497).
T5 construct: SPR analyte; also called mMerTK
T5 sequence: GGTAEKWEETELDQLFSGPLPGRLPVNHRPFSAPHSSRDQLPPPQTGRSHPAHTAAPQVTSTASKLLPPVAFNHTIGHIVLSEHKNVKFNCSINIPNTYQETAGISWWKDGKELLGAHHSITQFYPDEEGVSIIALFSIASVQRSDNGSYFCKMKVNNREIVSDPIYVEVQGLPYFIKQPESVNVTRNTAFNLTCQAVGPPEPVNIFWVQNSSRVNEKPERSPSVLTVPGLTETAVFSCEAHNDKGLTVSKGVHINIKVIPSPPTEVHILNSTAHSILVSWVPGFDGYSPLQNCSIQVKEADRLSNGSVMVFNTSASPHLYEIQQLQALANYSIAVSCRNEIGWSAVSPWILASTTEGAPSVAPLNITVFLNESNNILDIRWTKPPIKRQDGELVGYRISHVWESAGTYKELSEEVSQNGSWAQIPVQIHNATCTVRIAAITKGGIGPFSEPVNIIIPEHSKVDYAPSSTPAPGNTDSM
Described as above.

For test [6], the target named is T1, Human MerTK on hMerTK-expressing cells. The test is described as follows: binding to hMerTK-expressing cells.

The results in this text go back to patent publication US20210395392A1 (Bristol-Myers Squibb, published 2021).

B1: MoMAb 4E9 (antibody, V domains shown)
VH: QIQLVQSGPELKKPGETVKISCKASGNTFTTYGMSWVKQAPGKNLKWMGWINNYSGVSTYADDFKGRFAFSLETSATTAYLQINNLTNEDSATYFCARDYYGSGGWVFDYWGQGTTLTVSS
VL: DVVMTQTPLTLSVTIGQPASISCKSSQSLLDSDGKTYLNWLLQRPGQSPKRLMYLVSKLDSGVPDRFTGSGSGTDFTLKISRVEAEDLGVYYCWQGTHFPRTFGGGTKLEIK
notes: Mouse mAb; Bin 2
A word on the koff: it is a measure of how fast the partners let go of each other. What is called Kd is the constant that tells how readily two partners part at equilibrium. By kon is commonly meant a measure of how fast the partners come together. Consider B1, for which, in test [1], the “Inhibition of Efferocytosis IC50” value worked out at 0.632 nM; the “Signaling Assay, hMerTK with Gas6, pSTAT1 IC50 (nM)” value was 1.52 nM; the “Signaling Assay, hMerTK without Gas6, pSTAT1 IC50 (nM)” value was over 100 nM. The “Signaling Assay, mMerTK with Gas6, pSTAT1 IC50 (nM)” value in test [2] came out at 1.86 nM. In test [3], the koff is 0.00114 s⁻¹ and the t1/2 was determined as 10.1 min. Moreover, in test [4], the Kd is 40 nM, the koff amounted to 0.00112 s⁻¹, the kon was 28400 M⁻¹ s⁻¹ and the t1/2 was 10.3 min. Moreover, in test [5], the Kd was determined as 9.7 nM, the koff was found to be 0.00133 s⁻¹, the kon was 137000 M⁻¹ s⁻¹ and the t1/2 was found to be 8.7 min.

B2: MoMAb 16B9 (antibody, V domains shown)
VH: EVQLQQSRPDLVKPGASVKMSCKASGYTFIDYNMHWVKQRHGKSLEWIGYIHPNNGGTSYNQKFKDKATLTMNKSSSTAYMELRSLTSEDSAVYYCSRSGIYYDYDSFFDYWGQGTTLTVSS
VL: DIQMTQSPASLYVSVGETVTITCRASENIYSHLAWYQQKLGKSPHLLVYAATNLADGVPSRFSGSGSGTQYSLKINSLQSEDFGSYYCQHFWGSPWTFGGGTKLEIK
notes: Mouse mAb
As for B2, in test [1], the “Signaling Assay, hMerTK with Gas6, pSTAT1 IC50 (nM)” value is over 100 nM and the “Signaling Assay, hMerTK without Gas6, pSTAT1 IC50 (nM)” value is over 100 nM. In addition, in test [2], the “Signaling Assay, mMerTK with Gas6, pSTAT1 IC50 (nM)” value was 0.9 nM. In addition, in test [6], the binding result is listed as “no binding”. For the same molecule, in test [3], the Kd is over 250 nM. In addition, the Kd in test [4] is over 100 nM. In addition, in test [5], the Kd was found to be 35.1 nM, the koff was 0.00256 s⁻¹, the kon is 72700 M⁻¹ s⁻¹ and the t1/2 was determined as 4.5 min.
